# Source: article PMC4041915, “CBD binding domain fused γ-lactamase from Sulfolobus solfataricus is an efficient catalyst for (-) γ-lactam production” (BMC Biotechnology, 2014)
# Substrate: O=C1NC2C=CC1C2
# Experiment: purified protein
# Settings: free enzyme, 50 mM phosphate pH 7.0, 70°C (standard assay), 4.6-32.2 mM substrate, racemate taken as the substrate (not stated for the kinetics), only (+) enantiomer hydrolysed
Protein,Km,Km (preparation has a low-)
Cbd-Linker-Gla (cbd-linker-gla fusion enzyme; (+) γ-lactamase Gla) (Saccharolobus solfataricus P2) (protein) MGIKLPTLEDLREISKQFNLDLEDEELKSFLQLLKLQLESYERLDSLPDYTPRVKYQRTLGRPPMKEENPYGALVWITSIKGKEEGKLKGKRICIKDNVMIAGIPMLNGSKMLEGFVPHMDATVVSRILDEAGEIVAKTTCEDLCFSGGSHTSYPWPVLNPRNPEYMAGGSSSGSAVAVASGYCDMAVGGDQGGSIRIPSSWVGIYGLKPTHGLVPYTGAFSIEPTLDHLGPMANTVKDVALLLEVIAGRDELDSRQPDSLPPPPVKPYSKLIDGDVKDMKVGIVKEGFNWSNSEKDVDELVLDSAKKLEDYGIKVEDTSIPLHRMGLDIWTPIAIEGATATMILGSGVGWGRKGLFETQIADFFGNSLKSRARDLPNTVKGVLMLGYLMIKMYNNRYYAKARNLSIVLKEAYDSALRKYDALIMPTTPMKAMRYKSEPGFDEYFIMALGMINNTAPFDVTGHPAMNIPVGYSNGLPVGLMIIGRHFEEDKVLKLANVFERIKK,14.3 ± 1.6 mM,–
Gla-Linker-Cbd (gla-linker-cbd fusion enzyme; (+) γ-lactamase Gla) (Saccharolobus solfataricus P2) (protein) MGIKLPTLEDLREISKQFNLDLEDEELKSFLQLLKLQLESYERLDSLPDYTPRVKYQRTLGRPPMKEENPYGALVWITSIKGKEEGKLKGKRICIKDNVMIAGIPMLNGSKMLEGFVPHMDATVVSRILDEAGEIVAKTTCEDLCFSGGSHTSYPWPVLNPRNPEYMAGGSSSGSAVAVASGYCDMAVGGDQGGSIRIPSSWVGIYGLKPTHGLVPYTGAFSIEPTLDHLGPMANTVKDVALLLEVIAGRDELDSRQPDSLPPPPVKPYSKLIDGDVKDMKVGIVKEGFNWSNSEKDVDELVLDSAKKLEDYGIKVEDTSIPLHRMGLDIWTPIAIEGATATMILGSGVGWGRKGLFETQIADFFGNSLKSRARDLPNTVKGVLMLGYLMIKMYNNRYYAKARNLSIVLKEAYDSALRKYDALIMPTTPMKAMRYKSEPGFDEYFIMALGMINNTAPFDVTGHPAMNIPVGYSNGLPVGLMIIGRHFEEDKVLKLANVFERIKK,–,5.7 ± 0.1 mM
